Source: publication PMC9029707, “Crystal Structure of an SSB Protein from Salmonella enterica and Its Inhibition by Flavanonol Taxifolin” (International Journal of Molecular Sciences, 2022)

Legend:
[1] = molecular target: T1, SeSSB (single-stranded DNA-binding protein, STM_4256) (Salmonella enterica, UniProt P0A2F6); test: EMSA, inhibition of binding of purified SeSSB ([…]) to biotinylated ssDNA dT35
T1 construct: gene ssb; His-tagged SeSSB, 176 residues (pET21b-SeSSB)

[2] = molecular target: T2, SeSSB (single-stranded DNA-binding protein) (Salmonella enterica serovar Typhimurium …, UniProt P0A2F6 1-176); test: EMSA; single complex; SeSSB 0-4000 nM; dA EMSA: 20 mM Tris-HCl pH 8.0, 100 mM NaCl, 25 C, 30 min, 1.7 nM DNA; dT35 EMSA: 40 mM Tris-HCl pH 7.5, 50 mM NaCl, 37 C, 60 min, 30 fmol/uL DNA; 8% native PAGE in TBE; settings: protein: recombinant; tags: His-tag (pET21b); chain copies: 4; label: 5'-32P (T4 PNK); single strand
[3] = molecular target: T2, SeSSB (single-stranded DNA-binding …); test: EMSA; two complexes at higher SeSSB (0-4000 nM); dA EMSA: 20 mM Tris-HCl pH 8.0, 100 mM NaCl, 25 C, 30 min, 1.7 nM DNA; dT35 EMSA: 40 mM Tris-HCl pH 7.5, 50 mM NaCl, 37 C, 60 min, 30 fmol/uL DNA; 8% native PAGE in TBE; settings: protein: recombinant; tags: His-tag (pET21b); chain copies: 4; label: 5'-32P (T4 PNK); single strand
[4] = molecular target: T2, SeSSB (single-stranded DNA-binding …); test: EMSA; two complexes; SeSSB 0-4000 nM; dA EMSA: 20 mM Tris-HCl pH 8.0, 100 mM NaCl, 25 C, 30 min, 1.7 nM DNA; dT35 EMSA: 40 mM Tris-HCl pH 7.5, 50 mM NaCl, 37 C, 60 min, 30 fmol/uL DNA; 8% native PAGE in TBE; settings: protein: recombinant; tags: His-tag (pET21b); chain copies: 4; label: 5'-32P (T4 PNK); single strand
[5] = molecular target: T2, SeSSB (single-stranded DNA-binding …); test: EMSA; 37 C, 40 mM Tris-HCl pH 7.5, 50 mM NaCl; protein at 50% bound; dA EMSA: 20 mM Tris-HCl pH 8.0, 100 mM NaCl, 25 C, 30 min, 1.7 nM DNA; dT35 EMSA: 40 mM Tris-HCl pH 7.5, 50 mM NaCl, 37 C, 60 min, 30 fmol/uL DNA; 8% native PAGE in TBE; settings: protein: recombinant; tags: His-tag (pET21b); chain copies: 4; label: biotin (5' per Methods 4.5; 3' per Results 2.5); single strand
[6] = molecular target: the molecule itself; test: SEC; purified SeSSB (5 mg/mL) on a Superdex 200 prep-grade column in 100 mM NaCl, 100 mM MES, pH 6.5; calibrated with standard proteins; native mass estimated 76641 Da; tetramer

O=C1c2c(O)cc(O)cc2O[C@H](c2ccc(O)c(O)c2)[C@H]1O [taxifolin]
IC50 [1]: 98 ± 12 µM

AAAAAAAAAAAAAAAAAAAAAAAAAAAAAAAAAAAAAAAA (ssDNA) [dA40]
binding result [2]: binds

AAAAAAAAAAAAAAAAAAAAAAAAAAAAAAAAAAAAAAAAAAAAA (ssDNA) [dA45]
binding result [3]: binds

AAAAAAAAAAAAAAAAAAAAAAAAAAAAAAAAAAA (ssDNA) [dA35]
binding result [2]: binds

B1: dA55 (ssDNA)
DNA: AAAAAAAAAAAAAAAAAAAAAAAAAAAAAAAAAAAAAAAAAAAAAAAAAAAAAAA
binding result [4]: binds

AAAAAAAAAAAAAAAAAAAAAAAAAAAAAAAAAAAAAAAAAAAAAAAAAA (ssDNA) [dA50]
binding result [4]: binds

TTTTTTTTTTTTTTTTTTTTTTTTTTTTTTTTTTT (ssDNA) [dT35]
Kd [5]: 0.23 ± 0.02 µM

B2: Single-stranded DNA-binding protein (SSB) from Salmonella enterica serovar Typhimurium LT2 (natural protein, UniProt P0A2F6 1-176, looked up)
chain: MASRGVNKVILVGNLGQDPEVRYMPSGGAVANLTLATSESWRDKQTGEMKEQTEWHRVVMFGKLAEVAGEYLRKGSQVYIEGQLRTRKWTDQSGQERYTTEINVPQIGGVMQMLGGRQGGGAPAGGQQQGGWGQPQQPQQPQGGNQFSGGAQSRPQQSAPAPSNEPPMDFDDDIPF
notes: SSB (STM_4256) of Salmonella enterica serovar Typhimurium LT2; monomer of 176 amino acid residues, ~19 kDa; residues 1-115 ordered and 116-176 disordered in the crystal; No removal of the tag is described; also called SeSSB; S. enterica SSB
stoichiometry N [6]: 4
